Laboratory results as given in the DeepSol protein solubility set.

assay: soluble on expression in E. coli; label from the status in PepcDB or PDB records

| Sequence | soluble on expression in E. coli |
| --- | --- |
| AGSMEDIPVEEAVLTGVATDNSEAKITVLGIPDSPGSASAVFRALADAEINIDTVLQNISSLEDNRTDITFTCPRADGPHAMELLRNLQAKNDWQNVLYDDQIGKVSLVGAGMKSHPGVTAEFCEALRDAGVNIELISTSEIRISVLIRESDVDVAARAIHEKFELGGETEAIVYAGTGR | not soluble |
| MSLSTDDTLWREFLQVWPLERLREMTLAEYTTAGDKDCFVYWLEFRLVDYGSIAGGSAFKFAIFSRKETGAREGDTSLAYDDRYGWYRRFGTSPEEAFQTIRGHVVAVAEAARDGRLDEIDNSPLGAAYRWKIAFHYQPLRNPSTPCVYVRKPLLHFLGLSAADTTTPQSELYQALARLRQADESIFVFSERLWKDWVADTPFVVKLSEGAIKHGYLPVNLISAPFPETMYGGKTPNEAADVAHFRTDTGLEFDTDLRVSSPGSARLRHRLGGYFEDIGAAAGDLITLTQDGDGTYLLSSKLAVHAIGPTASAATITARASVKEAAAVRPPLNQILFGPPGTGKTYEAIEKALEILDPSFLLQLGDDESNERRRALKRRYDELAKEGLVQFVTFHQSFSYENFVEGLSASSDPDTKQVRYEVEDGVFKELCESARTRLVRRSDDAPLELSGRRIWKLSLGDSITEGHIFEECMEKGLALMGFGNNADFSQCQSREDIQKMFAASGEPLSLGAYPITAIKTFVCQMKLGDLIVVSEGNLKFRAIGEITGDYQLLPRDSDTYSQARPVRWLRGYKPALPYGALMENRFSQMTVYELRAGSIDHDKFRELLKSECIATGADRPHVLIIDEINRGNVSRIFGELITLIEPSKRSGAAEALEVLLPYSKDPFSVPDNVYLIGTMNTADRSLAGLDIALRRRFDFVEMAPRPDKLTGVKVAEIDISAVLETMNRRIEVLLDREHRLGHAYFMSLENSNDLSRLSNIFRQQIIPLLQEYFFEDWQRIAWILNDHRKDERFRFIVPAPYSVDSLFGDTGQVAQDSKAWRMNEEAFHKPQSYLGIVGDGKEGHHHHHH | not soluble |
| MNEKQKLESGQVHPSDKKSEKDYSKYFEAVYIPPSLKDAKKRGKEAVTYHNDFKISEQFKGLGDGRKFYIRTYGCQMNEHDTEVMAGIFMALGYEATNSVDDANVILLNTCAIRENAENKVFGELGHLKALKKNNPDLILGVCGCMSQEESVVNRILKKHPFVDMIFGTHNIHRLPELLSEAYLSKEMVVEVWSKEGDVIENLPKVRNGKIKGWVNIMYGCDKFCTYCIVPYTRGKERSRRPEDIIQEVRRLASEGYKEITLLGQNVNAYGKDFEDMTYGLGDLMDELRKIDIPRIRFTTSHPRDFDDRLIEVLAKGGNLLDHIHLPVQSGSSEVLKLMARKYDRERYMELVRKIKEAMPNASLTTDIIVGFPNETDEQFEETLSLYREVEFDSAYTFIYSPREGTPAAKMKDNVPMRVKKERLQRLNALVNEISAKKMKEYEGKVVEVLVEGESKNNPDILAGYTEKSKLVNFKGPKEAIGKIVRVKIQQAKTWSLDGEMVGEAIEVKLEHHHHHH | soluble |
| MGSDKIHHHHHHMRDLNRLDDLLQGYEFMKKINDNWEIIENGLNLSDYEIEHLRKRITNLVIASGGNSSNEVVDLRVSKLQNKIFELAKDRLDSDLDSLADSLKNMMTRITSIELTNEQVLYMLNRLYGLDAGSIEVYVDSVSGDDTAGTGEKNKPFKTINKATMNFPRVFNSNTLRLWINPGRYDEDVIIPPLSGVTLYILSSNYETVDPAAGPTTCQIRSISVSDTSGYIYIAGIEQTNTAGTTKNYFIKAIRCGFVRITKCRMAFNTKAIDPFTAVFIDACSADVNGCYFASQNVDVRGYNTARVEVQNTTHGAKSAIGLYPQSADIFNLNSGTWEADTPTKLSGGGVVRT | not soluble |
| MNSQQDLTMHNRSAAILLRPAAALYGMVMSLRNCLYDQGIFKSWHSPIPVVSVGNITTGGTGKTPLVDWIVKFYEASGIATAIVSRGYGRRTKGVQLVSDGGRLLLGSRDAGDETAMLAARNPRTIVVVAEKRVEGVQFLMHQFADRLPGVIVLDDAFQHRKIARDLDIVVVNAGAPEEIDAMLPAGRLREPLRGLRRAHLIILGKITDDANSATLLQTLRETGKPVIRSKIKPGKLIHVDGSENETNESVKTLAFAGIGAPEGFLHSLKTAGIKIAATKFFRDHEPYTESAIRSIIGEAKRQGLVPVTTEKDWFRIADEPELAEMLRQVGCRYLTITPEFPDGTQELERQLLDVLKRLEHHHHHH | not soluble |
| MNYTEHYHDWLRDAHAMEKQAESMLESMASRIENYPDIKARIEQHISETKHQITMLEEVLDRNGISRSVLKDSMSKMAAMGQSIGGMFPSDEIVKGSISGYVFEQFEIACYTSLLAAAKKAGDTASIPTIEAILKEEMQMADWLIKHIPQTTEQFLLRSEADGVEAKK | not soluble |
| MAVTISGVRKHSPAYRHGIQAGERLLTLNGNEIMDVLDYRFYQLNTALVLELENNRGERRTVSLKKPEYEEIGLEFETYLMDRQHSCKNKCVFCFIDQLPKGLRKSLYFKDDDSRLSFLFGNYVTLTNLTEHEISRIIKMHISPMNISVHTTNPELRVKMMKNPRAGEALSIIRRFAQAGIKINCQIVLCPGYNDGEELKRTLSDLETMCPQVQAVAVVPVGITRYRQNLPEMRSFTRETAGEAIDLIESFGEKCLQKYGTRVAYPGDEFYLKAERPLPPAGFYEDFSMLENGVGLLPLLMDEFYSALEEAGETGGRKREITIATGMAPREYIRGFLDDAIKKFPHISGRVTPIVNRFFGETITVSGLVTGTDLIEQLSSVDLGDELLIPACMLRREGDLFLDDVSLQDVEAALKVPVRPVPNDGYAFLDAILGSESLEHHHHHH | not soluble |
| MGTKLSVSLEGASTPETAPRVDRPPTFDPQYGFERPRKVREMKATWEEMEQWKLKPAQRDYCAHHLISLMKCQTQNAPFAGHACDGERGAWDKCEYDDHIMRIKEFERERRLLQRQARKEATA | not soluble |
| MFFSHETILLICYNMLTLSKKISRIASEMIMKTKLIVVAGPTAVGKTALGIELAERFNGEIISGDSQQVYRQLNIGTAKATPEEQAAAVHHLIDVRDVDESYSAYDFVTEAQAAITDIVSRGKLPIIVGGTGLYLQSLLEGYHLGGKVDQNQVLAYRSELEQLSDQQLFEKIDSLGIEIKEINRRRAIRALELYRFSDNLENTETCYEPFIIGLDDERSLIYDRINTRVDKMVELGLLEEAKWLYDNFPEAQSARGIGYKELFPYFSGEQTLDEALEKLKQNTRRFAKRQLTWFRNRMTVSFYQISSPEYPENVIQDLAIFLNEEEGEKLEHHHHHH | soluble |
| MGSDKIHHHHHHMAEHIITLVLSGERLDVTTSTPFVVALRDLLYEGDWELLKEDMKKKENIMKEVQTCEKLEKVVHLDETVYEPLIFPEFQEWLREENITPKDFKNVSLKGLYDLALEYADRNLYDIAHDIIKFMLDIDENYAPAYELKGSLLVEQGKIEEGIKFLDKAVEIDPWLVQAYASLGEAYYNLGDYEKAIHYWERELEYNPNDKITYFMITEAYYEMNRKDLAVKTLERLLEIDPDNIPALYQLSQLYRELGNEEKAREMEEKIMNCKPKYPTELEPWARVMLKHGRYKEVAEELEKIVESSPLNTLARLLLVVPYVKLGQIDKAREILDDIGQSNFWYYYGKKEILDELLTEEEKRACGIS | not soluble |
| MTVTDHILPTATNGRPPGLIIAAPSTNSGKTTVTLALHAALRRRSLTVQPYKCGPDYIDPAFHEIAAGRPCYNLDSWAFGQDRITYLLDAAAGADLCLAEGVMGLFDGGSARGAWGNGATADIAAFTGWPVVLVIDVAGQAQSAAALALGFARYRSDVRIAGVILNNVASARHEALVRDGFAAQDIPVLGGFERQRDLTLKNRHLGLVQARETARLDIRLQQLADSAVRGIDLDALIRAAQPARPIASTIRPLTPPGQRIALAHDDAFSFIYPHLTAGWRAAGAEIVPFSPLNDEGPDPSCDAAWLPGGYPELHAGRLAAATRFKAALGAFAETRAVHGECGGYMTLGAGLIDADGTRHAMAGLLGLETDFASRKLHLGYRLATLHADAAGKAAGSVLRGHEYHYARVVTVADEPLAEIRDPAGQLTDETGSRRGHVTGTFFHLIDVAEEAIALEHHHHHH | not soluble |
| MSPLTQFKFFLWFFSHFKVALIGYLKPKLIQLTDNEIVVRLPLTRRSRNHLHSMYFGALAVGADIAGGLHGFYHAKQAKCKVSLAFKSFQAQFLRRPESDVYFICTEGDVVKKMIEESKKSGERINKPIHIKAYINYLTHPEEIADFILELSLKVIKLEHHHHHH | soluble |
| MDADDLRQLAINVSMDDIAASRDATKRLQQLFTPQQIVAMLKDAPSTHALRVLVGEMEAVGNPDVFHLIGGVLEDVFTQPSRESKAVLFAPAAQFLVEFIVRSAAAADTAVASSMSKALHRLIAIAGDSTEAAAFLGPCLDANFHNEQVLRLFDCDAVESAENKTVCGFLEQWTSLLPFMFEATLDAFENDPLLQANYTIASGVACRTVDVPSALRQRTMDILRAKDDSLCFAYVCRFWSIALLRHEANGQRDAAACVSTVMPAAEASERDERATEAIFDLLGSAASTQAGWDAVTRQLPCKTLQVRLSSTSPSLRLSTLNLMLCMLTSPHMNVSFFTKDLLLDAWQTRTSPDDMVRLALWRVANAALLQESLNRMLGAACASFLSSGAHEENVAVRSLKLTAAERLLRHSTLPENVKARLSQVVERGLYPAGSSGVSLIAKD | not soluble |
| FNGHSLKAYPRMTFQLTIKGGNEMNYRIEEKEAFRIVGIKKRVPIIFKGINPEIASMWESLDEKAINKLKELSNVAPSGLISASTNFSEGRTEENGELDHYIGAATTKRCPDNFSRLEVPASTWAVFESIGPFPDTLQEVWGRIYSEWFPSSNYEQIEGPEILWNEHKDVTSPSFKSEIWIPITKK | not soluble |
| MGSDKIHHHHHHMEKMTFGLIVGNREFFPDRLVEEGRERVIKVLEGMGYRVVTLSPSDTKLGAVETAKDAKKCAELFKEKAGEIDGIIVTLPNFGDEKGVAQAIRLSGLNVPVLVHAFPDDPEKLDLQNRRDSFCGKISVSNNLKQYGIEFSLTTLHTEDPESEVFKRDIEKFAAVCRIVKGMRNIKVGAIGARPSAFNTVRFSEKILERMSISVETVDLSEILHRVSNLKDDDERVRRKLEEIKKNYRLQIVPEEKILLMAKFGSVIDEWIEENDIKALAIQCWTSLEWNLGITPCTIMSLLNEKGKPAACEVDITGALSMYVLQLASGQPSAIVDWNNNYRDENETILFHCGNFPASIYEEKPEIKYADVIGTTVGKERAYGACAGKIKTSPFTFLRLTTDDNEGKVKAYVGEGQILDENPKTFGSRGVARIEKLQELMKYICENGFEHHVAINLSRVADAVKEALEKYLGIVVHKHNAEV | not soluble |
| MTIYMFNNVNLQRQYMIDTIIFDFDGVILNSEPMHFEAIVQVLNQSGINLAYEEYMTHYLGLSDISLFPKILNDKGLAFSSTEIHQVIERKVRVYNELIENSEQLPMTPDLDWFLVRVARQYGKIGICSGSNRHSIIKILEKIHCGRLACYFKTIVSCEDVSLGKPSPEGYLLAAHRLQSKPENCLVIEDSEHGVAAAKAGGMLVAGLLTTLSRDLLANADMIVHDFKELDHLLNSH | not soluble |
| MGSDKIHHHHHHMRILLTGIPSYLQRTVSGVSGAEVRHRPYFDEVRTKKELIEQVKKIANTGNYLIGEGAAHALRGHDVTYLPFWHLVNSRNSDEAYESLNEEFDICVFASANLLRPGYSADLEAEVFEKLKMPVVIMGIGIQRREGLKENLPAGTLKFLEVLRNKESFFLTRGYFTAEFLREQGMKFVKPTGCPSLFFAPAEMKRSLAALANPELASSQKIAFGGYLGSVADTIVDAHALLKPDSVASYVIQDEVVAYNLSLPVDDDLPVYDRASGRITGQTAYKHSEKWQRKHELLVFFDTNQWRSWVSARDLCFGRRFHGCIIGMQAGVPSLMIAVDDRMREMLEFIGFPYMEAAVWNREQDRKAYLASFLSKIDSQAVIDRYSACETNFRNALAHVGL | not soluble |
